In patent US20210061914A1 (published 2021):
Where a chain is given by its changes, count along the chain named.

B1: scFv G5R4-P1H11 (scFv, V domains shown)
VH: EVQLLESGGGLVKPGGSLRLSCAASGFTFSDYYMSWVRQAPGKGLEWVSYISSSSSYTNYADSVKGRFTISRDDSKNTLYLQMNSLKTEDTAVYYCARDVVANFDYWGQGTLVTVSS
VL: EIVMTQSPATLSVSPGERATLSCRASQSVSSNLAWYQQKPGQAPRLLIYAASARASGIPARFSGSGSGTEFTLTISSLQSEDFAVYYCQQYGSWPRTFGQGTKVEIK
notes: scFv
B2: scFv R3G8-P5F02 (scFv, V domains shown)
VH: QVQLVQSGAEVKKPGASVKVSCKASGYTFTGYYIHWVRQAPGQGLEWMGVINPSGGSTTYAQKLQGRVTMTRDTSTSTVYMELSSLRSEDTAVYYCARDRDSSWTYYYYGMDVWGQGTTVTVSS
VL: B1 VL with S30G, S31N, N32S, A50G, A53T, S56T, W94S, R96Y
notes: scFv
B3: scFv G5R4-P2B10 (scFv, V domains shown)
VH: QVQLVQSGAEVKKPGASVKVSCKASGGTFSSYAISWVRQAPGQGLEWMGWMNPDSGSTGYAQRFQGRVTMTRDTSTSTVYMELSSLRSEDTAVYYCARGHSSGWYYYYGMDVWGQGTTVTVSS
VL: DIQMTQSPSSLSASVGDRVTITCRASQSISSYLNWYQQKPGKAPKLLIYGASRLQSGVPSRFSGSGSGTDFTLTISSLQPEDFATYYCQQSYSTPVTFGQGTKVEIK
notes: scFv
B4: scFv R3G8-P5G08 (scFv, V domains shown)
VH: QVQLVQSGAEVKKPGASVKVSCKASGYTFTSNYMHWVRQAPGQGLEWMGWMNPNSGNTGYAQKFQGRVTMTRDTSTSTVYMELSSLRSEDTAVYYCARGLYGDYFLYYGMDVWGQGTTVTVSS
VL: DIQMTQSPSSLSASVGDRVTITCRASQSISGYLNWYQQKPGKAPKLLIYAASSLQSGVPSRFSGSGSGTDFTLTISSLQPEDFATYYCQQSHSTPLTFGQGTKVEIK
notes: scFv
B5: scFv G5R4-P4B01 (scFv, V domains shown)
VH: QVQLVQSGAEVKKPGSSVKVSCKASGGTFSSYAISWVRQAPGQGLEWMGGIIPIVGTANYAQKFQGRVTITADESTSTAYMELSSLRSEDTAVYYCARGGSYYYYGMDVWGQGTTVTVSS
VL: not shown
notes: scFv
B6: scFv G5R4-P3G05 (scFv, V domains shown)
VH: QVQLVQSGAEVKKPGASVKVSCKASGYTFTNYYMHWVRQAPGQGLEWMGIINPSGGSTSYAQKFQGRVTMTRDTSTSTVYMELSSLRSEDTAVYYCARSWFGGFNYHYYGMDVWGQGTTVTVSS
VL: DIQMTQSPSSLSASVGDRVTITCQASEDISNHLNWYQQKPGKAPKLLIYDALSLQSGVPSRFSGSGSGTDFTLTISSLQPEDFATYYCQQANSFPFTFGPGTKVDIK
notes: scFv
B7: scFv G5-P3G01 (scFv, V domains shown)
VH: QVQLVQSGAEVKKPGASVKVSCKASGGTFSGYLVSWVRQAPGQGLEWMGWINPNSGGTNTAQKFQGRVTMTRDTSTSTVYMELSSLRSEDTAVYYCAREGYGMDVWGQGTTVTVSS
VL: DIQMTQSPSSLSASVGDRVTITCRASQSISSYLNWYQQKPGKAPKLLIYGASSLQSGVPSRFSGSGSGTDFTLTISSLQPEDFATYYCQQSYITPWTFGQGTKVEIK
B8: scFv G5R4-P2H8 (scFv, V domains shown)
VH: EVQLLESGGGLVQPGGSLRLSCAASGFTFTSYSMHWVRQAPGKGLEWVSSITSFTNTMYYADSVKGRFTISRDNSKNTLYLQMNSLRAEDTAVYYCAKDLGSYGGYYWGQGTLVTVSS
VL: not shown
notes: scFv
B9: scFv G8-P2C11 (scFv, V domains shown)
VH: QVQLVQSGAEVKKPGASVKVSCKASGYTFTSYAMNWVRQAPGQGLEWMGWINPNSGGTNYAQKFQGRVTMTRDTSTSTVYMELSSLRSEDTAVYYCAKDPFWSGHYYYYGMDVWGQGTTVTVSS
VL: not shown
notes: scFv
B10: scFv G5R4-P4A07 (scFv, V domains shown)
VH: QVQLVQSGAEVKKPGASVKVSCKASGYTFTSYYMHWVRQAPGQGLEWMGWMNPNSGNTGYAQKFQGRVTMTRDTSTSTVYMELSSLRSEDTAVYYCARELPIGYGMDVWGQGTTVTVSS
VL: not shown
notes: scFv
B11: scFv G8-P1H08 (scFv, V domains shown)
VH: QVQLVQSGAEVKKPGASVKVSCKASGYTFGNYFMHWVRQAPGQGLEWMGMVNPSGGSETFAQKFQGRVTMTRDTSTSTVYMELSSLRSEDTAVYYCAASTWIQPFDYWGQGTLVTVSS
VL: DIQMTQSPSSLSASVGDRVTITCRASQGINSYLAWYQQKPGKAPKLLIYDASNLETGVPSRFSGSGSGTDFTLTISSLQPEDFATYYCQQHNSYPPTFGQGTKLEIK
notes: scFv
B12: scFv G8-P2E06 (scFv, V domains shown)
VH: QVQLVQSGAEVKKPGASVKVSCKASGYTLTTYYMHWVRQAPGQGLEWMGWINPNSGGTNYAQKFQGRVTMTRDTSTSTVYMELSSLRSEDTAVYYCARAVYYDFWSGPFDYWGQGTLVTVSS
VL: B11 VL with N30S, S31N, Y32S, D50A, N53S, E55Q, T56S, H91A, Y94F, P96W
notes: scFv
B13: scFv G8-P1C01 (scFv, V domains shown)
VH: QVQLVQSGAEVKKPGASVKVSCKASGGTFSSHAISWVRQAPGQGLEWMGVIIPSGGTSYTQKFQGRVTMTRDTSTSTVYMELSSLRSEDTAVYYCARGDYYDSSGYYFPVYFDYWGQGTLVTVSS
VL: B11 VL with G28N, N30Y, S31T, A34N, H91A, S93G, Y94F, P96L, Q100G, L104V
notes: scFv
B14: scFv G8-P2B05 (scFv, V domains shown)
VH: EVQLLESGGGLVQPGGSLRLSCAASGFDFSIYSMNWVRQAPGKGLEWVSAISGSGGSTYYADSVKGRFTISRDNSKNTLYLQMNSLRAEDTAVYYCASNGNYYGSGSYYNYWGQGTLVTVSS
VL: DIQMTQSPSSLSASVGDRVTITCRASQSISRWLAWYQQKPGKAPKLLIYAASSLQSGVPSRFSGSGSGTDFTLTISSLQPEDFATYYCQQYSTYPITIGQGTKVEIK
notes: scFv
B15: scFv G5-P4E04 (scFv, V domains shown)
VH: QVQLVQSGAEVKKPGASVKVSCKASGGTFSSYGISWVRQAPGQGLEWMGWINPNSGVTKYAQKFQGRVTMTRDTSTSTVYMELSSLRSEDTAVYYCARGDYYFDYWGQGTLVTVSS
VL: DIQMTQSPSSLSASVGDRVTITCRASQSISRFLNWYQQKPGKAPKLLIYGASRPQSGVPSRFSGSGSGTDFTLTISSLQPEDFATYYCQQSYSTPLTFGQGTKVEIK
notes: scFv
B16: scFv R3G8-P2C10 (scFv, V domains shown)
VH: QVQLVQSGAEVKKPGASVKVSCKASGYTFTSYYMHWVRQAPGQGLEWMGWINPYSGGTNYAQKFQGRVTMTRDTSTSTVYMELSSLRSEDTAVYYCAKGGIYYGSGSYPSWGQGTLVTVSS
VL: B14 VL with S28D, I29V, R31T, Y91S, S92H, T93S, Y94T, I96Q, I98F
notes: scFv
B17: scFv G5-P1B12 (scFv, V domains shown)
VH: EVQLLESGGGLVQPGGSLRLSCAASGFTFSNSDMNWVRQAPGKGLEWVASISSSGGYINYADSVKGRFTISRDNSKNTLYLQMNSLRAEDTAVYYCAKVNWNDGPYFDYWGQGTLVTVSS
VL: B14 VL with R31S, Y91A, S92N, T93S, Y94F, I96L, I98F, Q100G
notes: scFv
B18: scFv G5-P1C12 (scFv, V domains shown)
VH: QVQLVQSGAEVKKPGSSVKVSCKASGGTFSNFGVSWLRQAPGQGLEWMGGIIPILGTANYAQKFQGRVTITADESTSTAYMELSSLRSEDTAVYYCATPTNSGYYGPYYYYGMDVWGQGTTVTVSS
VL: B15 VL with R31S, F32W, N34A, G50A, R53T, P54L, T94I, Q100G
notes: scFv
B19: scFv R3G8-P5C03 (scFv, V domains shown)
VH: QVQLVQSGAEVKKPGASVKVSCKASGYTFTSYYMHWVRQAPGQGLEWMGWMNPNSGNTGYAQKFQGRVTMTRDTSTSTVYMELSSLRSEDTAVYYCARGLLGFGEFLTYGMDVWGQGTLVTVSS
VL: B15 VL with S28G, R31N, F32W, N34A, G50A, R53T, P54L, S91T, L96W, V104L
notes: scFv
B20: scFv R3G8-P2E04 (scFv, V domains shown)
VH: QVQLVQSGAEVKKPGSSVKVSCKASGGTFSSYGVSWVRQAPGQGLEWMGWISPYSGNTDYAQKFQGRVTITADESTSTAYMELSSLRSEDTAVYYCARGLYYMDVWGKGTTVTVSS
VL: B11 VL with G28S, N30S, Y32W, H91S, N92Y, Y94T, P96L, Q100G
notes: scFv
B21: scFv G5-P1-E05 (scFv, V domains shown)
VH: QVQLVQSGAEVKKPGASVKVSCKASGYTFTSYNMHWVRQAPGQGLEWMGWINPNSGGTNYAQKFQGRVTMTRDTSTSTVYMELSSLRSEDTAVYYCARDVMDVWGQGTTVTVSS
VL: B15 VL with S28G, R31N, F32Y, G50Y, R53S, P54L, S91T, S93M, T94M, L96Y
notes: scFv
B22: scFv G8-P1D02 (scFv, V domains shown)
VH: EVQLLESGGGLVQPGGSLRLSCAASGFTFSSYWMSWVRQAPGKGLEWVSSISGRGDNTYYADSVKGRFTISRDNSKNTLYLQMNSLRAEDTAVYYCARASGSGYYYYYGMDVWGQGTTVTVSS
VL: B6 VL with E27Q, H32Y, D50A, L52S, A91S, N92Y, F94A, F96Y, P100G, D105E
notes: scFv
B23: scFv R3G8-P4F05 (scFv, V domains shown)
VH: B4 VH with T30S, S31N, N32M, M34L, M51I, S55T, N57D, G59N, K63T, T118K
VL: B15 VL with S28G, R31N, F32Y, N34A, G50A, R53T, P54L, Q100G
notes: scFv
B24: scFv G5R4-P1D06 (scFv, V domains shown)
VH: QVQLVQSGAEVKKPGASVKVSCKASGYTFTSYDINWVRQAPGQGLEWMGWINPNSGDTKYSQKFQGRVTMTRDTSTSTVYMELSSLRSEDTAVYYCARDGTRYYGMDVWGQGTTVTVSS
VL: not shown
notes: scFv

How the values were obtained:
[1] = target: HLA-B*35:01_… (HLA-PEPTIDE target G5), soluble (human, enzymatically biotinylated (BirA)); test: scFv PPE ELISA
[2] = target: HLA-A*02:01_… (HLA-PEPTIDE target G8), soluble (human, enzymatically biotinylated (BirA) for screening and BLI); test: scFv PPE ELISA

Binder | fold selective binding, target pHLA vs minipool of negative control pHLAs [1] [fold] | fold selective binding, target pHLA vs minipool of negative control pHLAs [2] [fold]
B1 | ≥ 3 | –
B2 | – | ≥ 3
B3 | ≥ 3 | –
B4 | – | ≥ 3
B5 | ≥ 3 | –
B6 | ≥ 3 | –
B7 | ≥ 3 | –
B8 | ≥ 3 | –
B9 | – | ≥ 3
B10 | ≥ 3 | –
B11 | – | ≥ 3
B12 | – | ≥ 3
B13 | – | ≥ 3
B14 | – | ≥ 3
B15 | ≥ 3 | –
B16 | – | ≥ 3
B17 | ≥ 3 | –
B18 | ≥ 3 | –
B19 | – | ≥ 3
B20 | – | ≥ 3
B21 | ≥ 3 | –
B22 | – | ≥ 3
B23 | – | ≥ 3
B24 | ≥ 3 | –
